T1: B7-H3 on MDA-MB-468 cells (human, UniProt Q5ZPR3)
T1 construct: endogenous, on the cell surface
T1 sequence (cell surface antigen, looked up): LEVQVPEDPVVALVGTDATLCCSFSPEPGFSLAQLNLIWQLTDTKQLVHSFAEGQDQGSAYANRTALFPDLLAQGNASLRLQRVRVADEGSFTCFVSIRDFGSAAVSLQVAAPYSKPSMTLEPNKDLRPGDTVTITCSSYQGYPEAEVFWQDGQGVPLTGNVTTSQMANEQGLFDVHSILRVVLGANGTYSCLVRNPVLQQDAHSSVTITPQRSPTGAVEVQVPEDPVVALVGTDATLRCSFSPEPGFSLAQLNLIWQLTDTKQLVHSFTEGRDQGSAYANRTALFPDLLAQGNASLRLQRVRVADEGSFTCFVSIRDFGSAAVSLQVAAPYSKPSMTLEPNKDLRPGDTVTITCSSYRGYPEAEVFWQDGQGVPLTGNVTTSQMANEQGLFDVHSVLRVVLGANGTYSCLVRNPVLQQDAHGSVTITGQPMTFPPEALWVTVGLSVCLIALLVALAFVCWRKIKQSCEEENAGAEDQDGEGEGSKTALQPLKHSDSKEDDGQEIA

T2: Lag3 (NCBI Reference Sequence: NP_002277.4) on Lag3-CHO cells (UniProt P18627 23-525, limits assumed)
T2 construct: whole, on cells
T2 sequence (looked up): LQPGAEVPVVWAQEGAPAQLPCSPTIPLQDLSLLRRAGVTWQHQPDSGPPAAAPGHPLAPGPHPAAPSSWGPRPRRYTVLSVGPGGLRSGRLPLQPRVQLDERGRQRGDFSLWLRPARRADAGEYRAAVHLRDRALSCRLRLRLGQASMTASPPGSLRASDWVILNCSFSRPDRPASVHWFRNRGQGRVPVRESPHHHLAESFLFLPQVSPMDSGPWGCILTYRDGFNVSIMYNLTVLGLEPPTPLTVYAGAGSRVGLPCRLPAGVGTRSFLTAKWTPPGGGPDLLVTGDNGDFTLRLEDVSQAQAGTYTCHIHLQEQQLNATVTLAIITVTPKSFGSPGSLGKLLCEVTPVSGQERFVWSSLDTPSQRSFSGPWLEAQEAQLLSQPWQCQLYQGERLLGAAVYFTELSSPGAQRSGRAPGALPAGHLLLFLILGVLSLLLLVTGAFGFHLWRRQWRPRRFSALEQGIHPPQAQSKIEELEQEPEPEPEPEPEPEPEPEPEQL

T3: antigen hB7-H3-His (human, UniProt Q5ZPR3 29-461)
T3 construct: residues 1-28 are left out on that ground
T3 sequence: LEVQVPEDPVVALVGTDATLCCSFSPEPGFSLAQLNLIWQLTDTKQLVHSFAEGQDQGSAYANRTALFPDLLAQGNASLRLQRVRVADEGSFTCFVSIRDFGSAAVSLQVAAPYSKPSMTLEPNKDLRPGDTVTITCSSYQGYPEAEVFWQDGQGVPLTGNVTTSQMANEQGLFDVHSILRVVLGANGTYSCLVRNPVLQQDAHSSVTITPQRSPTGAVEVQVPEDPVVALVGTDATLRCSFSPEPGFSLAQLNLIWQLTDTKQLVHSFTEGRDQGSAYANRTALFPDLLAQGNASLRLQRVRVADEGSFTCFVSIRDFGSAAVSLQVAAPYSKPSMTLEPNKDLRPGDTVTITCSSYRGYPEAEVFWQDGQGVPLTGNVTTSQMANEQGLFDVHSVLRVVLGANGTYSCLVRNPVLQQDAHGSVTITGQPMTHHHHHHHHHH


Legend:
[1] = biological target: T1, B7-H3 on MDA-MB-468 cells; assay: flow cytometry on MDA-MB-468 cells; blank V2-R 0.9%
[2] = biological target: T2, Lag3 (NCBI Reference Sequence: …); assay: flow cytometry on Lag3-CHO cells, PE anti-human IgG Fc secondary
[3] = biological target: T4, Tim3 (NCBI Reference Sequence: NP_116171.3) on Tim3-CHO cells (UniProt Q8TDQ0 22-301, limits assumed); assay: flow cytometry on Tim3-CHO cells, PE anti-human IgG Fc secondary
T4 construct: whole, on cells

[4] = biological target: T5, VISTA (NCBI Reference Sequence: NP_071436.1) on VISTA-CHO cells (UniProt Q9H7M9 33-311, limits assumed); assay: flow cytometry on VISTA-CHO cells, PE anti-human IgG Fc secondary
T5 construct: whole, on cells

[5] = biological target: T3, antigen hB7-H3-His; assay: SPR, BiaCore T200, antibody captured on Protein A chip, hB7-H3-His as analyte, 1:1 model
[6] = biological target: T1, B7-H3 on MDA-MB-468 cells; assay: flow cytometry on MDA-MB-468 cells, PE anti-human IgG Fc secondary, antibody from 100 nM in 3-fold dilutions; axis 'Concentration' has no unit, nM from p-1056
[7] = biological target: T6, hB7-H3-Fc; assay: ELISA on coated hB7-H3-Fc (2 ug/mL), HRP anti-human kappa secondary, A450, antibody from 300 nM in 3-fold dilutions; axis 'Concentration' has no unit, nM from p-1066
T6 construct: also called antigen hB7-H3-Fc

[8] = biological target: T2, Lag3 (NCBI Reference Sequence: …); assay: flow cytometry on Lag3-CHO cells
[9] = biological target: T4, Tim3 (NCBI Reference Sequence: …); assay: flow cytometry on Tim3-CHO cells
[10] = biological target: T5, VISTA (NCBI Reference Sequence: …); assay: flow cytometry on VISTA-CHO cells
[11] = biological target: T2, Lag3 (NCBI Reference Sequence: …); assay: flow cytometry on Lag3-CHO cells; blank P3 0.5%; the filing says V1-V5 did not bind
[12] = biological target: T4, Tim3 (NCBI Reference Sequence: …); assay: flow cytometry on Tim3-CHO cells; blank P3 0.2%; the filing says V1-V5 did not bind
[13] = biological target: T5, VISTA (NCBI Reference Sequence: …); assay: flow cytometry on VISTA-CHO cells; blank P3 0.1%; the filing says V1-V5 did not bind

T6 sequence (fusion chain, as listed by the source limits assumed): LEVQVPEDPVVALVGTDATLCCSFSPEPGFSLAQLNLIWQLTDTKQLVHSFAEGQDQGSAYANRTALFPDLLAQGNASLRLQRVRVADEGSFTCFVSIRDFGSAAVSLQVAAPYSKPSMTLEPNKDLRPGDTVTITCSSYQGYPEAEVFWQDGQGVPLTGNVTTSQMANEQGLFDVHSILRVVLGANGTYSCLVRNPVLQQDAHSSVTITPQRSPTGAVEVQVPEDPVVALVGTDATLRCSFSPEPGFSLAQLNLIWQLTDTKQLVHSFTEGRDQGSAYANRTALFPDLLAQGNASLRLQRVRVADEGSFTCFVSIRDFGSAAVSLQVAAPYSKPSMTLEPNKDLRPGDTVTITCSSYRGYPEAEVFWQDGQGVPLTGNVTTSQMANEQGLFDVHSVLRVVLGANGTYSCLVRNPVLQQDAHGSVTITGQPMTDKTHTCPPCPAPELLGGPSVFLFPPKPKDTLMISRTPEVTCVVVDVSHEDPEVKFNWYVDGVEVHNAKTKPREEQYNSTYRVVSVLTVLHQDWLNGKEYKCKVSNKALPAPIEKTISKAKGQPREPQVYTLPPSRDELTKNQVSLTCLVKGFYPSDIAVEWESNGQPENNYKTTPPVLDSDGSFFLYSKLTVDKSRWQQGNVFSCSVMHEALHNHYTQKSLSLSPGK

Row | Binder | % of cells in gate V1-R at 0.411 nM [1] | % of cells in gate V1-R at 1.23 nM [1] | % of cells in gate V1-R at 3.7 nM [1] | % of cells in gate V1-R at 11.11 nM [1] | % of cells in gate V1-R at 33.33 nM [1] | % of cells in gate V1-R at 100 nM [1] | binding result [2] | binding result [3] | binding result [4] | Kd [5] | koff [5] | kon [5] | EC50 [6] | EC50 [7] | binding result [8] | binding result [9] | binding result [10] | % of cells in gate P3 at 100 nM [11] | % of cells in gate P3 at 100 nM [12] | % of cells in gate P3 at 100 nM [13]
1 | Antibody V5 (antibody, human IgG1, kappa, V domains shown, Humanized from chimeric antibody M1; also called humanized antibody V5) VH: QVQLVQSGAEVKKPGASVKVSCKASGYTFTDYDINWVRQAPGQRLEWIGWIFPGDDTTKYNEKFKGRATLTADKSASTAYMELSSLRSEDTAVYYCARSPSFDYWGQGTLVTVSS VL: QIVLTQSPSSLSASVGDRVTITCSASSTIGFMYWYQQKPGKAPKRWIYDTSKLASGVPSRFSVSGSGTDYTLTISSLQPEDFATYYCHQRSSYPTFGQGTKVEIKR | 31.6% | 73.5% | 92.6% | 99.3% | 99.6% | 99.7% | – | – | – | – | – | – | – | 8.24 nM | no binding (tested: 100 nM) | no binding (tested: 100 nM) | no binding (tested: 100 nM) | 0.4% | 0.1% | 0.2%
2 | Antibody M2 (antibody, human IgG1, kappa, V domains shown, Chimeric antibody: murine variable regions on human IgG1 and light chain constant regions; expressed in HEK293F cells; also called chimeric antibody M2) VH: QVQLQQSGPELVKPGASVRISCKASGYTFTDYDINWVQQRPGQGLEWIGWIFPGDDTTKYNEKFKGRATLTADKSSNTAYMQLNGLTSENSAVYFCARSPSFDYWGQGTLVTVSS VL: DIKMTQSPSSMYASLGERVTITCKASQDINRFLSWFQQKPGKSPKTLIYRANRLRDGVPSRFSGNGSGQDYSLTISSLEYEDMGIYYCLQYDEFPPFTFGSGTKLEIKR | – | – | – | – | – | – | – | – | – | 383 nM | 0.0491 s⁻¹ | 128000 M⁻¹ s⁻¹ | 69.3 nM | – | – | – | – | – | – | –
3 | Antibody V2 (antibody, human IgG1, kappa, V domains shown, Humanized from chimeric antibody M1; also called humanized antibody V2) VH: EVQLVQSGAEVKKSGESLKISCKASGYTFTDYDINWVRQMPGKGLEWIGWIFPGDDTTKYNEKFKGQVTLSADKSTNTAYMQWSSLKASDTAMYYCARSPSFDYWGQGTLVTVSS VL: QIVLTQSPGTLSLSPGERATLSCSASSTIGFMYWYQQKPGQAPRRWIYDTSKLASGVPDRFSVSGSGTDYTLTISRLEPEDFAVYYCHQRSSYPTFGQGTKVEIKR | 1.2% | 1.3% | 60.1% | 97.8% | 99.7% | 99.4% | – | – | – | – | – | – | – | 2.66 nM | no binding (tested: 100 nM) | no binding (tested: 100 nM) | no binding (tested: 100 nM) | 5.6% | 1.8% | 1.8%
4 | Antibody V1 (antibody, human IgG1, kappa, V domains shown, Humanized from chimeric antibody M1; also called humanized antibody V1) VH: EVQLVQSGAEVKKSGESLKISCKASGYTFTDYDINWVRQMPGKGLEWMGWIFPGDDTTKYNEKFKGQVTISADKSTNTAYLQWSSLKASDTAMYYCARSPSFDYWGQGTLVTVSS VL: QIVLTQSPGTLSLSPGERATLSCSASSTIGFMYWYQQKPGQAPRRWIYDTSKLASGVPDRFSVSGSGTDYTLTISRLEPEDFAVYYCHQRSSYPTFGQGTKVEIKR | 1.4% | 8.6% | 92.7% | 99.5% | 99.6% | 99.7% | – | – | – | – | – | – | – | 3.95 nM | no binding (tested: 100 nM) | no binding (tested: 100 nM) | no binding (tested: 100 nM) | 3.2% | 1.7% | 0.9%

Results, then the binder that gave them:

Row | % of cells in gate V1-R at 0.411 nM [1] | % of cells in gate V1-R at 1.23 nM [1] | % of cells in gate V1-R at 3.7 nM [1] | % of cells in gate V1-R at 11.11 nM [1] | % of cells in gate V1-R at 33.33 nM [1] | % of cells in gate V1-R at 100 nM [1] | binding result [2] | binding result [3] | binding result [4] | Kd [5] | koff [5] | kon [5] | EC50 [6] | EC50 [7] | binding result [8] | binding result [9] | binding result [10] | % of cells in gate P3 at 100 nM [11] | % of cells in gate P3 at 100 nM [12] | % of cells in gate P3 at 100 nM [13] | Binder
5 | 1.1% | 4% | 38.4% | 97.2% | 98.8% | 99.3% | no binding (tested: 100 nM) | no binding (tested: 100 nM) | no binding (tested: 100 nM) | 0.986 nM | 0.00024 s⁻¹ | 244000 M⁻¹ s⁻¹ | 8.54 nM | 3.73 nM | – | – | – | – | – | – | control Antibody M30-H1-L4 (antibody, human IgG1, kappa, V domains shown, Control anti-B7-H3 antibody) VH: QVQLVQSGAEVKKPGSSVKVSCKASGYTFTNYVMHWVRQAPGQGLEWMGYINPYNDDVKYNEKFKGRVTITADESTSTAYMELSSLRSEDTAVYYCARWGYYGSPLYYFDYWGQGTLVTVSS VL: EIVLTQSPATLSLSPGERATLSCRASSRLIYMHWYQQKPGQAPRPLIYATSNLASGIPARFSGSGSGTDFTLTISSLEPEDFAVYYCQQWNSNPPTFGQGTKVEIKR
6 | 26.5% | 93.1% | 98.7% | 99.5% | 99.7% | 99.7% | no binding (tested: 100 nM) | no binding (tested: 100 nM) | no binding (tested: 100 nM) | 0.372 nM | 0.000279 s⁻¹ | 750000 M⁻¹ s⁻¹ | 1.54 nM | 3.69 nM | – | – | – | – | – | – | Antibody M1 (antibody, human IgG1, kappa, V domains shown, Chimeric antibody: murine variable regions on human IgG1 and light chain constant regions; expressed in HEK293F cells; also called chimeric antibody M1) VH: QVQLQQSGPELVKPGASVRISCKASGYTFTDYDINWVQQRPGQGLEWIGWIFPGDDTTKYNEKFKGRATLTADKSSNTAYMQLNGLTSENSAVYFCARSPSFDYWGQGTLVTVSS VL: QIVLTQSPAIMSASPGERVTMTCSASSTIGFMYWYQQKPGTSPKRWIYDTSKLASGVPARFSVSGSGTSYSLTISSMEAEDAATYYCHQRSSYPTFGGGTKLEIKR

From patent US20250262316A1 (BIO THERA SOLUTIONS, published 2025)
